For test [1], the target named is T1, Human TSLPR on the cell surface (Ba/F3/hTSLPR/hIL7Rα cells, Ba/F3/hTSLPR/hIL7Rα/Stat5-Luc cells, human … (human, UniProt Q9HC73 23-371)).
T1 sequence (looked up): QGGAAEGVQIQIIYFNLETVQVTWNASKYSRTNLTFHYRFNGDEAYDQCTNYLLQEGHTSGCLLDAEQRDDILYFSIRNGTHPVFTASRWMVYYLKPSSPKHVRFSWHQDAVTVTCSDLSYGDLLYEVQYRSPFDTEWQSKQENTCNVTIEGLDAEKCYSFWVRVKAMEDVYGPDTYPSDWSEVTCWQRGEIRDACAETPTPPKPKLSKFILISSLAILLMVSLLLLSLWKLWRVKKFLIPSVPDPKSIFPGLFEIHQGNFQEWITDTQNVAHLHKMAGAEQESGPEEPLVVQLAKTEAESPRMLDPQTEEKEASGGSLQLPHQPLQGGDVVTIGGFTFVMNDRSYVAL
Nature of the test: cell-based or functional assay.

The target in test [2] is T2, Human TSLPR (human, UniProt Q9HC73 23-231, limits assumed).
T2 construct: also called hTSLPR; human thymic stromal lymphopoietin receptor
T2 sequence (looked up): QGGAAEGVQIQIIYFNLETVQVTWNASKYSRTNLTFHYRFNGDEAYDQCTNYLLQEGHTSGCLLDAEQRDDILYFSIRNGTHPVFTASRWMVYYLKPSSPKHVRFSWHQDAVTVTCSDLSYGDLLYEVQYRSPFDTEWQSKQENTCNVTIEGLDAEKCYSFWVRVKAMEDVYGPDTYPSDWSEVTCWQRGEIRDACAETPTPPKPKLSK
Nature of the test: ForteBio, solution binding kinetics. Background: Biolayer interferometry detects binding as a change in optical thickness at a sensor tip.

Test [3] has as its target T2, Human TSLPR. Nature of the test: Biacore surface plasmon resonance. (In general: Surface plasmon resonance follows binding to a sensor surface in real time, without labels.)
The target in test [4] is T3, Human TSLPR fragment 67-174 (human, UniProt Q9HC73).
T3 construct: extracellular domain fragment; also called 67 (23) to 174 (58)
T3 receptor fragment (looked up): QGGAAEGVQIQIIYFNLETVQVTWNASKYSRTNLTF
Nature of the test: ELISA of antibody 1D6.C9 on human TSLPR fragments (OD650); hFc bars as control for the fragment. In general terms: In an ELISA, binding on a coated surface is turned into a signal by an enzyme label.

Test [5] addresses T4, Human TSLPR fragment 67-336 (human, UniProt Q9HC73).
T4 construct: extracellular domain fragment; also called 67 (23) to 336 (112)
T4 sequence (receptor fragment, looked up): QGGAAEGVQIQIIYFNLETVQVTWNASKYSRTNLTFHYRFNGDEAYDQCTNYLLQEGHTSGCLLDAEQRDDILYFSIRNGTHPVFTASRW
The test is described as above.

B1: NV115-3B (Fab) (Fab, V domains shown)
VH: QVQLVQSGAEVKKPGASVKVSCKASGYTFTTYGISWLRQAPGQGLEWMGWVNTNTGNPRYAQGFTGRFVFSLDTSVSTAYLQISSLKAEDTAVYYCAREGFITTVVGAAGRFVYWGQGTLVTVSS
VL: DIQMTQSPSSLSASVGDRVTITCRASQDIHTRLAWYQQKPGQPPKLLIYWASTRASGVPDRFSGTGSGTDFTLTISSLQAEDVAVYYCQQYSTYPTFGQGTKLEIK
notes: the constant domains of the Fab are not
Take B1: in test [1], the “IC50 [pM] Human TSLPR Prolif.” value was 210 pM, the “IC50 [pM] Human TSLPR Prolif. (15% serum)” value was 200 pM, the “IC50 [pM] Human TSLPR RGA” value came out at 270 pM and the “IC50 [pM] Human TSLPR RGA (15% serum)” value worked out at 950 pM. Besides, in the test with Human TSLPR [2], binding was put at a Kd of 0.051 nM. Also, the Kd (in general, the constant that tells how readily two partners part at equilibrium) with Human TSLPR [3] is 0.101 nM.

B2: mouse anti-hTSLPR monoclonal antibody clone 1D6.C9 (antibody, V domains shown)
VH: QIQLGQSGPELKKPGETVKISCKASGYTFTTYGMSWVKQAPGKGLQWMGWINTYSGVPRYADDFKGRFAFSLETSASTAYLQIYNLKNEDTATYFCTREGFITTVVGAAGRFVYWGQGTLVTVSA
VL: DIVMTQSHKFMSTSVGDRVSITCKASQDVGTAVAWYQQKPGQSPKLLIYWASTRHTGVPDRFTGSGSGTDFTLTLNNVQSEDLADYFCQQYSTYPTFGSGTKLELKR
notes: also called mAb 1D6.C9; mouse anti-hTSLPR antibody
As for B2, the binding result in test [4] and in test [5] was “no binding” in each case.

The record behind these values is patent publication US20120027756A1 (IRM, published 2012).
